According to IntAct's records for PubMed 26635368:

B1: Sprouty-related, EVH1 domain-containing protein 1 (Homo sapiens), Q7Z699 (parent)
chain: MSEETATSDNDNSYARVRAVVMTRDDSSGGWLPLGGSGLSSVTVFKVPHQEENGCADFFIRGERLRDKMVVLECMLKKDLIYNKVTPTFHHWKIDDKKFGLTFQSPADARAFDRGIRRAIEDISQGCPESKNEAEGADDLQANEEDSSSSLVKDHLFQQETVVTSEPYRSSNIRPSPFEDLNARRVYMQSQANQITFGQPGLDIQSRSMEYVQRQISKECGSLKSQNRVPLKSIRHVSFQDEDEIVRINPRDILIRRYADYRHPDMWKNDLERDDADSSIQFSKPDSKKSDYLYSCGDETKLSSPKDSVVFKTQPSSLKIKKSKRRKEDGERSRCVYCQERFNHEENVRGKCQDAPDPIKRCIYQVSCMLCAESMLYHCMSDSEGDFSDPCSCDTSDDKFCLRWLALVALSFIVPCMCCYVPLRMCHRCGEACGCCGGKHKAAG

Variants of: B1
Details: with nf1_human NF1, P21359
Chain of nf1_human NF1, P21359 (P21359 whole entry): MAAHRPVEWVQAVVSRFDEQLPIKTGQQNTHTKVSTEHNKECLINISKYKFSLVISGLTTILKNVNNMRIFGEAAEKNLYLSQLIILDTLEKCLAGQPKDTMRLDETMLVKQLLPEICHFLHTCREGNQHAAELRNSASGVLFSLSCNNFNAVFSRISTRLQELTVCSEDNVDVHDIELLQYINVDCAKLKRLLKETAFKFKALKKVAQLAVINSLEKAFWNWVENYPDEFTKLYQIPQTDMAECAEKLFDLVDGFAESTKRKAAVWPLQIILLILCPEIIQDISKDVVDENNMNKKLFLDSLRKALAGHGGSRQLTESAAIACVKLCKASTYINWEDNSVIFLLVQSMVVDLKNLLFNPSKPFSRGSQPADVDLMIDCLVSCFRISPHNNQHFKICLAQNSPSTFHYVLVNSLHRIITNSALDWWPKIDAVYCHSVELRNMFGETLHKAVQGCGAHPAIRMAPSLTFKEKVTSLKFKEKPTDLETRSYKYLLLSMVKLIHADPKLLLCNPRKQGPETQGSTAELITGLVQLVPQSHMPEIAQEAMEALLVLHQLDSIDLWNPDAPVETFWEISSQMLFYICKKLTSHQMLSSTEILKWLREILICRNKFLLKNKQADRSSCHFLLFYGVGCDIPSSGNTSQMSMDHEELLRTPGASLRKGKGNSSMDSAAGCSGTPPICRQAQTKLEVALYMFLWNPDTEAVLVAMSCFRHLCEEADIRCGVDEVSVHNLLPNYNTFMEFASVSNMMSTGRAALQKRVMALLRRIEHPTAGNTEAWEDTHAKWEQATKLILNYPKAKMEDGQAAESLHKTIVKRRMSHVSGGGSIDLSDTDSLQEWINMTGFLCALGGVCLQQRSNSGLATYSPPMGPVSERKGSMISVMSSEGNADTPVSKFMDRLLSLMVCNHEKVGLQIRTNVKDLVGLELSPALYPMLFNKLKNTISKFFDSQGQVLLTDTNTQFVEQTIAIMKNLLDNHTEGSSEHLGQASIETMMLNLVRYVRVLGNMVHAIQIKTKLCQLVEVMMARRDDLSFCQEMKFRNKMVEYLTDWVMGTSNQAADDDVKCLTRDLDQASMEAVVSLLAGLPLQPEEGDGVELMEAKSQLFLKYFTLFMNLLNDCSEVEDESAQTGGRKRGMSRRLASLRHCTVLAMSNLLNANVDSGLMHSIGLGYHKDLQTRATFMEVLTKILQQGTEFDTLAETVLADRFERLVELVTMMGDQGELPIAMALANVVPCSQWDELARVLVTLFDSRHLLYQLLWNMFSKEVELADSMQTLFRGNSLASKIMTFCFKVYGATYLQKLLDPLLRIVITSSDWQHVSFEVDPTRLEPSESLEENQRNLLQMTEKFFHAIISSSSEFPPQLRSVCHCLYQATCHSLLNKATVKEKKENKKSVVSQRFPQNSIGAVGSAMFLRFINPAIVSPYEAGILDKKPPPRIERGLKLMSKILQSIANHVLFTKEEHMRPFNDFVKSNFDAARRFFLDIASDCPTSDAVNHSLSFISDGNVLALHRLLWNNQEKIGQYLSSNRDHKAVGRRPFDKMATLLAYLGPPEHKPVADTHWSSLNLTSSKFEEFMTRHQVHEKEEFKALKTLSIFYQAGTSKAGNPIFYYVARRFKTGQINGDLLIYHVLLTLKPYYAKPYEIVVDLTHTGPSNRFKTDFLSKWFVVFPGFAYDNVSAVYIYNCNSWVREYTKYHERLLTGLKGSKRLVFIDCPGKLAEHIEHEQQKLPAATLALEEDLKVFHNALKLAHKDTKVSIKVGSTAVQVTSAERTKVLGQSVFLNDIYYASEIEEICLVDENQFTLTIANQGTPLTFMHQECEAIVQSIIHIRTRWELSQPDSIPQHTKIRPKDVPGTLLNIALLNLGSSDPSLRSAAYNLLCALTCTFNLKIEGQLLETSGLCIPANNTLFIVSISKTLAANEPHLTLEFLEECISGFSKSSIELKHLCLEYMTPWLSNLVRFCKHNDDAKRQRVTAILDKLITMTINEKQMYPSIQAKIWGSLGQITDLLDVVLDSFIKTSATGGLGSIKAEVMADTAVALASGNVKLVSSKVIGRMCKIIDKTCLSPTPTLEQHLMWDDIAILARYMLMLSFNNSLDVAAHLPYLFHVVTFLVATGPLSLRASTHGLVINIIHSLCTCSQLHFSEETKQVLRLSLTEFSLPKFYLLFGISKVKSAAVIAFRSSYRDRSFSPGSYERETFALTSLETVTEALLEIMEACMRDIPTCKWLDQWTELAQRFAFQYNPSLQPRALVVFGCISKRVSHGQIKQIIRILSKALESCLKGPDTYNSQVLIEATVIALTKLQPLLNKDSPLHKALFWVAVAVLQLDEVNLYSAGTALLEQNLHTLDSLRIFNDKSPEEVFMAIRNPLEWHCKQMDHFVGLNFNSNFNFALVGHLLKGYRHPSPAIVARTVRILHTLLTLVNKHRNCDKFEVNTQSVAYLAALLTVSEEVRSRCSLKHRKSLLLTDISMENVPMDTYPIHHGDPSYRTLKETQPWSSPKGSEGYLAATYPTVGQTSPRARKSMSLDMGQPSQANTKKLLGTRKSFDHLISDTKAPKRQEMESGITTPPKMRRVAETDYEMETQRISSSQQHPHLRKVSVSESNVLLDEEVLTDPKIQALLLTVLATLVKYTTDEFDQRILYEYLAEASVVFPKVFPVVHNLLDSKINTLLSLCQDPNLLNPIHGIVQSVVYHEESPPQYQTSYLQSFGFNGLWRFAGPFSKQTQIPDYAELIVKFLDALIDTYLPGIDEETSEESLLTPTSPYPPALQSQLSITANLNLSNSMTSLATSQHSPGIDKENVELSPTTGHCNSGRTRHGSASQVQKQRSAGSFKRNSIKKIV

| Variant | effect of a mutation on the interaction |
| --- | --- |
| MSEETATSDNDNSYARVRAVVMTRDDSSGRWLPLGGSGLSSVTVFKVPHQEENGCADFFIRGERLRDKMVVLECMLKKDLIYNKVTPTFHHWKIDDKKFGLTFQSPADARAFDRGIRRAIEDISQGCPESKNEAEGADDLQANEEDSSSSLVKDHLFQQETVVTSEPYRSSNIRPSPFEDLNARRVYMQSQANQITFGQPGLDIQSRSMEYVQRQISKECGSLKSQNRVPLKSIRHVSFQDEDEIVRINPRDILIRRYADYRHPDMWKNDLERDDADSSIQFSKPDSKKSDYLYSCGDETKLSSPKDSVVFKTQPSSLKIKKSKRRKEDGERSRCVYCQERFNHEENVRGKCQDAPDPIKRCIYQVSCMLCAESMLYHCMSDSEGDFSDPCSCDTSDDKFCLRWLALVALSFIVPCMCCYVPLRMCHRCGEACGCCGGKHKAAG [G30R] | decreasing interaction strength |
| MSEETATSDNDNSYARVRAVVMTRDDSSGGWLPLGGSGLSSVTDFKVPHQEENGCADFFIRGERLRDKMVVLECMLKKDLIYNKVTPTFHHWKIDDKKFGLTFQSPADARAFDRGIRRAIEDISQGCPESKNEAEGADDLQANEEDSSSSLVKDHLFQQETVVTSEPYRSSNIRPSPFEDLNARRVYMQSQANQITFGQPGLDIQSRSMEYVQRQISKECGSLKSQNRVPLKSIRHVSFQDEDEIVRINPRDILIRRYADYRHPDMWKNDLERDDADSSIQFSKPDSKKSDYLYSCGDETKLSSPKDSVVFKTQPSSLKIKKSKRRKEDGERSRCVYCQERFNHEENVRGKCQDAPDPIKRCIYQVSCMLCAESMLYHCMSDSEGDFSDPCSCDTSDDKFCLRWLALVALSFIVPCMCCYVPLRMCHRCGEACGCCGGKHKAAG [V44D] | disrupting interaction strength |
| MSEETATSDNDNSYARVRAVVMTRDDSSGGWLPLGGSGLSSITVFKVPHQEENGCADFFIRGERLRDKMVVLECMLKKDLIYNKVTPTFHHWKIDDKKFGLTFQSPADARAFDRGIRRAIEDISQGCPESKNEAEGADDLQANEEDSSSSLVKDHLFQQETVVTSEPYRSSNIRPSPFEDLNARRVYMQSQANQITFGQPGLDIQSRSMEYVQRQISKECGSLKSQNRVPLKSIRHVSFQDEDEIVRINPRDILIRRYADYRHPDMWKNDLERDDADSSIQFSKPDSKKSDYLYSCGDETKLSSPKDSVVFKTQPSSLKIKKSKRRKEDGERSRCVYCQERFNHEENVRGKCQDAPDPIKRCIYQVSCMLCAESMLYHCMSDSEGDFSDPCSCDTSDDKFCLRWLALVALSFIVPCMCCYVPLRMCHRCGEACGCCGGKHKAAG [V42I] | with no effect |
| MSEETATSVNDNSYARVRAVVMTRDDSSGGWLPLGGSGLSSVTVFKVPHQEENGCADFFIRGERLRDKMVVLECMLKKDLIYNKVTPTFHHWKIDDKKFGLTFQSPADARAFDRGIRRAIEDISQGCPESKNEAEGADDLQANEEDSSSSLVKDHLFQQETVVTSEPYRSSNIRPSPFEDLNARRVYMQSQANQITFGQPGLDIQSRSMEYVQRQISKECGSLKSQNRVPLKSIRHVSFQDEDEIVRINPRDILIRRYADYRHPDMWKNDLERDDADSSIQFSKPDSKKSDYLYSCGDETKLSSPKDSVVFKTQPSSLKIKKSKRRKEDGERSRCVYCQERFNHEENVRGKCQDAPDPIKRCIYQVSCMLCAESMLYHCMSDSEGDFSDPCSCDTSDDKFCLRWLALVALSFIVPCMCCYVPLRMCHRCGEACGCCGGKHKAAG [D9V] | with no effect |
| MSEETATSDNDNSYARVRAVVMTRDDSSGGWLPLGGSGLSSVTVFKVPHQEENGCADFFIRGERLRDKMVVLEFMLKKDLIYNKVTPTFHHWKIDDKKFGLTFQSPADARAFDRGIRRAIEDISQGCPESKNEAEGADDLQANEEDSSSSLVKDHLFQQETVVTSEPYRSSNIRPSPFEDLNARRVYMQSQANQITFGQPGLDIQSRSMEYVQRQISKECGSLKSQNRVPLKSIRHVSFQDEDEIVRINPRDILIRRYADYRHPDMWKNDLERDDADSSIQFSKPDSKKSDYLYSCGDETKLSSPKDSVVFKTQPSSLKIKKSKRRKEDGERSRCVYCQERFNHEENVRGKCQDAPDPIKRCIYQVSCMLCAESMLYHCMSDSEGDFSDPCSCDTSDDKFCLRWLALVALSFIVPCMCCYVPLRMCHRCGEACGCCGGKHKAAG [C74F] | with no effect |
| MSEETATSDKDNSYARVRAVVMTRDDSSGGWLPLGGSGLSSVTVFKVPHQEENGCADFFIRGERLRDKMVVLECMLKKDLIYNKVTPTFHHWKIDDKKFGLTFQSPADARAFDRGIRRAIEDISQGCPESKNEAEGADDLQANEEDSSSSLVKDHLFQQETVVTSEPYRSSNIRPSPFEDLNARRVYMQSQANQITFGQPGLDIQSRSMEYVQRQISKECGSLKSQNRVPLKSIRHVSFQDEDEIVRINPRDILIRRYADYRHPDMWKNDLERDDADSSIQFSKPDSKKSDYLYSCGDETKLSSPKDSVVFKTQPSSLKIKKSKRRKEDGERSRCVYCQERFNHEENVRGKCQDAPDPIKRCIYQVSCMLCAESMLYHCMSDSEGDFSDPCSCDTSDDKFCLRWLALVALSFIVPCMCCYVPLRMCHRCGEACGCCGGKHKAAG [N10K] | with no effect |
| MSEETATSDNDNSYARVRAVVMTRDDSSGGLLPLGGSGLSSVTVFKVPHQEENGCADFFIRGERLRDKMVVLECMLKKDLIYNKVTPTFHHWKIDDKKFGLTFQSPADARAFDRGIRRAIEDISQGCPESKNEAEGADDLQANEEDSSSSLVKDHLFQQETVVTSEPYRSSNIRPSPFEDLNARRVYMQSQANQITFGQPGLDIQSRSMEYVQRQISKECGSLKSQNRVPLKSIRHVSFQDEDEIVRINPRDILIRRYADYRHPDMWKNDLERDDADSSIQFSKPDSKKSDYLYSCGDETKLSSPKDSVVFKTQPSSLKIKKSKRRKEDGERSRCVYCQERFNHEENVRGKCQDAPDPIKRCIYQVSCMLCAESMLYHCMSDSEGDFSDPCSCDTSDDKFCLRWLALVALSFIVPCMCCYVPLRMCHRCGEACGCCGGKHKAAG [W31L] | disrupting interaction strength |
| MSEETATSDNDNSYARVRAVVMTRDDSSGGCLPLGGSGLSSVTVFKVPHQEENGCADFFIRGERLRDKMVVLECMLKKDLIYNKVTPTFHHWKIDDKKFGLTFQSPADARAFDRGIRRAIEDISQGCPESKNEAEGADDLQANEEDSSSSLVKDHLFQQETVVTSEPYRSSNIRPSPFEDLNARRVYMQSQANQITFGQPGLDIQSRSMEYVQRQISKECGSLKSQNRVPLKSIRHVSFQDEDEIVRINPRDILIRRYADYRHPDMWKNDLERDDADSSIQFSKPDSKKSDYLYSCGDETKLSSPKDSVVFKTQPSSLKIKKSKRRKEDGERSRCVYCQERFNHEENVRGKCQDAPDPIKRCIYQVSCMLCAESMLYHCMSDSEGDFSDPCSCDTSDDKFCLRWLALVALSFIVPCMCCYVPLRMCHRCGEACGCCGGKHKAAG [W31C] | decreasing interaction strength |
| MSEETATSDNDNSYARVRAVVMTRDDSSGGWLPLGGSGLSSVTVFKVPHQEENGCADFFIRRERLRDKMVVLECMLKKDLIYNKVTPTFHHWKIDDKKFGLTFQSPADARAFDRGIRRAIEDISQGCPESKNEAEGADDLQANEEDSSSSLVKDHLFQQETVVTSEPYRSSNIRPSPFEDLNARRVYMQSQANQITFGQPGLDIQSRSMEYVQRQISKECGSLKSQNRVPLKSIRHVSFQDEDEIVRINPRDILIRRYADYRHPDMWKNDLERDDADSSIQFSKPDSKKSDYLYSCGDETKLSSPKDSVVFKTQPSSLKIKKSKRRKEDGERSRCVYCQERFNHEENVRGKCQDAPDPIKRCIYQVSCMLCAESMLYHCMSDSEGDFSDPCSCDTSDDKFCLRWLALVALSFIVPCMCCYVPLRMCHRCGEACGCCGGKHKAAG [G62R] | decreasing interaction strength |
| MSEETATSDNDNSYARVRAVVMTRDDSSGGWLPLGGSGLSSVTVFKVPHQEENGCADFFIRGERLRDKMVVLECMLKKDRIYNKVTPTFHHWKIDDKKFGLTFQSPADARAFDRGIRRAIEDISQGCPESKNEAEGADDLQANEEDSSSSLVKDHLFQQETVVTSEPYRSSNIRPSPFEDLNARRVYMQSQANQITFGQPGLDIQSRSMEYVQRQISKECGSLKSQNRVPLKSIRHVSFQDEDEIVRINPRDILIRRYADYRHPDMWKNDLERDDADSSIQFSKPDSKKSDYLYSCGDETKLSSPKDSVVFKTQPSSLKIKKSKRRKEDGERSRCVYCQERFNHEENVRGKCQDAPDPIKRCIYQVSCMLCAESMLYHCMSDSEGDFSDPCSCDTSDDKFCLRWLALVALSFIVPCMCCYVPLRMCHRCGEACGCCGGKHKAAG [L80R] | decreasing interaction strength |
| MSEETATSDNDNSYARVRAVVMTQDDSSGGWLPLGGSGLSSVTVFKVPHQEENGCADFFIRGERLRDKMVVLECMLKKDLIYNKVTPTFHHWKIDDKKFGLTFQSPADARAFDRGIRRAIEDISQGCPESKNEAEGADDLQANEEDSSSSLVKDHLFQQETVVTSEPYRSSNIRPSPFEDLNARRVYMQSQANQITFGQPGLDIQSRSMEYVQRQISKECGSLKSQNRVPLKSIRHVSFQDEDEIVRINPRDILIRRYADYRHPDMWKNDLERDDADSSIQFSKPDSKKSDYLYSCGDETKLSSPKDSVVFKTQPSSLKIKKSKRRKEDGERSRCVYCQERFNHEENVRGKCQDAPDPIKRCIYQVSCMLCAESMLYHCMSDSEGDFSDPCSCDTSDDKFCLRWLALVALSFIVPCMCCYVPLRMCHRCGEACGCCGGKHKAAG [R24Q] | decreasing interaction strength |

Variants of: B1
Details: with nf1_human NF1, P21359
Remark: another data set of the same source

| Variant | effect of a mutation on the interaction |
| --- | --- |
| MSEETATSDNDNSYARVRAVVMTRDDSSGRWLPLGGSGLSSVTVFKVPHQEENGCADFFIRGERLRDKMVVLECMLKKDLIYNKVTPTFHHWKIDDKKFGLTFQSPADARAFDRGIRRAIEDISQGCPESKNEAEGADDLQANEEDSSSSLVKDHLFQQETVVTSEPYRSSNIRPSPFEDLNARRVYMQSQANQITFGQPGLDIQSRSMEYVQRQISKECGSLKSQNRVPLKSIRHVSFQDEDEIVRINPRDILIRRYADYRHPDMWKNDLERDDADSSIQFSKPDSKKSDYLYSCGDETKLSSPKDSVVFKTQPSSLKIKKSKRRKEDGERSRCVYCQERFNHEENVRGKCQDAPDPIKRCIYQVSCMLCAESMLYHCMSDSEGDFSDPCSCDTSDDKFCLRWLALVALSFIVPCMCCYVPLRMCHRCGEACGCCGGKHKAAG [G30R] | disrupting interaction strength |
| MSEETATSDNDNSYARVRAVVMTRDDSSGGCLPLGGSGLSSVTVFKVPHQEENGCADFFIRGERLRDKMVVLECMLKKDLIYNKVTPTFHHWKIDDKKFGLTFQSPADARAFDRGIRRAIEDISQGCPESKNEAEGADDLQANEEDSSSSLVKDHLFQQETVVTSEPYRSSNIRPSPFEDLNARRVYMQSQANQITFGQPGLDIQSRSMEYVQRQISKECGSLKSQNRVPLKSIRHVSFQDEDEIVRINPRDILIRRYADYRHPDMWKNDLERDDADSSIQFSKPDSKKSDYLYSCGDETKLSSPKDSVVFKTQPSSLKIKKSKRRKEDGERSRCVYCQERFNHEENVRGKCQDAPDPIKRCIYQVSCMLCAESMLYHCMSDSEGDFSDPCSCDTSDDKFCLRWLALVALSFIVPCMCCYVPLRMCHRCGEACGCCGGKHKAAG [W31C] | disrupting interaction strength |
